Measured values taken from paper PMC5038948, “The Role of Neutrophil Proteins on the Amyloid Beta-RAGE Axis” (PLoS ONE, 2016).
Where two headings read alike, the source gives them in different places.

Legend:
Aβ1–42 binding to RAGE = target: T1, Aβ1–42 binding to RAGE (Homo sapiens, UniProt Q15109); experiment: ELISA: competitive inhibition of Aβ1–42 binding to RAGE by neutrophil proteins added simultaneously
T1 construct: purchased R&D Systems Inc. (RAGE Fc chimera); Bachem (Aβ1–42)
Procedure: (§1) The plates were washed three times with PBS containing 0.05% tween (PBST), and then blocked in PBST containing 3% bovine serum albumin (BSA). Indicated proteins were added to the plate in 50 μL PBST containing 0.1% BSA and incubated at 37°C for 70 mins. Wells were washed four times with PBST, and then incubated with 50 μL of goat anti-RAGE primary antibody (0.5 μg/ml) or mouse anti-APP/Aβ antibody (0.5 μg/ml-1 μg/ml) for 1 h. After washing the wells four times with PBST, 50 μL of rabbit anti-goat at 0.16 μg/ml or donkey anti-mouse at 0.04–0.08 μg/ml secondary antibodies were added for 1 h at room temperature.
(§2) All statistics were performed using Graph Pad Prism 6 (GraphPad Software, La Jolla, CA). Data are represented as mean± SEM of results. […] Two-way analysis of variances (ANOVAs) were performed with Dunnett’s multiple comparison tests. […] Kruskal-Wallis tests with Dunn’s multiple comparison tests were used to analyze binding by Far-Western dot blotting (see figure legends 3 and 6 for details on multiple comparison tests). […] To obtain dissociation constants (Kd), half-maximal inhibitory concentrations (IC50), and maximum absorbance values, BSA was subtracted as background and values were fitted to a curve of nonlinear regression.

RAGE Fc chimera [1] = target: T2, RAGE Fc chimera (Homo sapiens, UniProt Q15109); experiment: ELISA: Aβ1–42 binding to RAGE after pre-incubation of Aβ1–42 with neutrophil proteins; design: purchased R&D Systems Inc. (RAGE Fc chimera); Bachem (Aβ1–42); settings: for Kd: read-out: KD value for Aβ1–42 binding to RAGE
Procedure: as §1
In this set of experiments, the maxisorp plates were coated with RAGE Fc chimera (0.5 μg/well, 83.3 nM) overnight at 4°C.
as §2

RAGE Fc chimera [2] = target: T2, RAGE Fc chimera; experiment: ELISA: binding of RAGE to coated neutrophil proteins; design: purchased R&D Systems Inc. (Minneapolis, MN); settings: for Log binding (RAGE): wells coated 0.5 μg/well protein, log-transformed OD 492 nm, mean ± SEM
Procedure: as §1
Goat anti-RAGE primary antibody at 0.5 μg/ml was used to detect bound RAGE.
as §2

Aβ1–42 [3] = target: T3, Aβ1–42 (Homo sapiens, UniProt P05067); experiment: ELISA: binding of Aβ1–42 to coated neutrophil proteins; settings: for Log binding (Aβ1–42): 0.5 μg/well coated protein, with protease inhibitor cocktail, log OD 492 nm, mean ± SEM, n = 3
T3 construct: Amyloid beta 1–42 (Aβ1–42), a known RAGE ligand; purchased Bachem (Torrance, CA)
Procedure: as §1, §2

Aβ1–42 [4] = target: T3, Aβ1–42; experiment: Far-Western dot blot: binding of Aβ1–42 to spotted neutrophil proteins; settings: Aβ1–42 […] (56 nM) with protease inhibitor cocktail; 1 μg spotted protein
Procedure: After spotting, membranes were rinsed with ultrapure water, and Ponceau S (Sigma Aldrich) was used to stain for spotted proteins. Ponceau S was rinsed off with ultrapure water, and membrane blots were blocked for 2 h at room temperature in PBST containing 3% BSA. […] Blots were washed three times with PBST for 10 min, and then incubated with either rabbit anti-RAGE primary antibody (0.8μg/ml) or mouse anti-APP/Aβ (0.25μg/ml) for 2 h at room temperature. Blots were washed three times with PBST for 10 min, and then incubated with donkey anti-rabbit or donkey anti-mouse secondary antibodies at 0.04μg/ml for 45 min at room temperature. Blots were washed three times with PBST. Enhanced chemiluminescent or SuperSignal West femto maximum sensitivity substrates (Pierce) were used to develop blots. Mean dot densities were quantified and normalized to ponceau S dot densities using Image J software (National Institutes of Health (NIH), Bethesda, MD).
Blots were incubated with rocking overnight at 4°C.
All statistics were performed using Graph Pad Prism 6 (GraphPad Software, La Jolla, CA). Data are represented as mean± SEM of results. […] To obtain dissociation constants (Kd), half-maximal inhibitory concentrations (IC50), and maximum absorbance values, BSA was subtracted as background and values were fitted to a curve of nonlinear regression.

RAGE Fc chimera [5] = target: T2, RAGE Fc chimera; experiment: Far-Western dot blot: binding of RAGE to spotted proteins ± GM-0111; design: purchased R&D Systems Inc. (Minneapolis, MN); settings: 1 μg spotted protein (0.5 μg Aβ1–42)
Procedure: as §2

T2 sequence (Q15109 with tags, fused parts or gaps limits assumed): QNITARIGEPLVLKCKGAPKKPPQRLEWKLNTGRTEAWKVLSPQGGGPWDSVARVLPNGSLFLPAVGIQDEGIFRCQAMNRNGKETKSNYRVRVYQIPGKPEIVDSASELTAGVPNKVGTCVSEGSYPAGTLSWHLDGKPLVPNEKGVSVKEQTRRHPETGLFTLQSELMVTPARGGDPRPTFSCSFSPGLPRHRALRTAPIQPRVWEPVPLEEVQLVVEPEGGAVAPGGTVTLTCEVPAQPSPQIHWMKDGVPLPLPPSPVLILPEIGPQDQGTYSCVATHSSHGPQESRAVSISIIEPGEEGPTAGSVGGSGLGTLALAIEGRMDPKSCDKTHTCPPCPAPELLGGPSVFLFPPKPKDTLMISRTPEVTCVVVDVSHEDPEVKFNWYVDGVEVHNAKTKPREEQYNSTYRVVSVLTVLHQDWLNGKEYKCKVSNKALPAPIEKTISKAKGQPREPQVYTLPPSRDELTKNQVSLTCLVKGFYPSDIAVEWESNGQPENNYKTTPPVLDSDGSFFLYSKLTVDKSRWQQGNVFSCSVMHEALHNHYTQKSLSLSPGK
T1 sequence (Q15109 with tags, fused parts or gaps limits assumed): as above

B1: cationic antimicrobial protein of 37kDa (protein)
chain: IVGGRKARPRQFPFLASIQNQGRHFCGGALIHARFVMTAASCFQSQNPGVSTVVLGAYDLRRRERQSRQTFSISSMSENGYDPQQNLNDLMLLQLDREANLTSSVTILPLPLQNATVEAGTRCQVAGWGSQRSGGRLSRFPRFVNVTVTPEDQCRPNNVCTGVLTRRGGICNGDGGTPLVCEGLAHGVASFSLGPCGRGPDFFTRVALFRDWIDGVLNNPGPGPA
notes: neutrophil protein purified from human neutrophils (Athens Research & Technology)
**Q.** How did the “maximal inhibition of Aβ1–42 binding to RAGE in the absence of protease inhibitors” value (Aβ1–42 binding to RAGE; no protease inhibitors, highest dose of protein) turn out when B1 was run?
**A.** The value was “complete”.

**Q.** And the “inhibition of Aβ1–42 binding to RAGE in the presence of protease inhibitors” value (Aβ1–42 binding to RAGE; with protease inhibitor cocktail, Aβ1–42 11 nM)?
**A.** The value was “only partial”.

**Q.** And the “maximum absorbance (MA) for Aβ1–42 binding to RAGE” value (RAGE Fc chimera [1]; Aβ1–42 pre-incubated with CAP37 500 ng/ml)?
**A.** Its value is 3.05.

**Q.** What about the “maximum absorbance (MA) for Aβ1–42 binding to RAGE” value (RAGE Fc chimera [1]; Aβ1–42 pre-incubated with CAP37 1 μg/ml) of the same molecule?
**A.** Its value is 3.70.

**Q.** What about the “maximum absorbance value for Aβ1–42 binding to RAGE” value (RAGE Fc chimera [1]; Aβ1–42 pre-incubated with CAP37 2 μg/ml) of the same molecule?
**A.** The value was 3.27 OD 492 nm.

**Q.** What about the Kd (RAGE Fc chimera [1]; Aβ1–42 pre-incubated overnight 4°C with CAP37 500 ng/ml (21 nM)) of the same molecule?
**A.** The Kd was 0.0138 µM.

**Q.** And the Kd (RAGE Fc chimera [1]; Aβ1–42 pre-incubated overnight 4°C with CAP37 1 μg/ml (42 nM))?
**A.** The Kd was 0.0593 µM.

**Q.** And the Kd (RAGE Fc chimera [1]; Aβ1–42 pre-incubated overnight 4°C with CAP37 2 μg/ml (83 nM))?
**A.** The Kd was 0.149 µM.

**Q.** And the “maximum absorbance value for RAGE binding” value (RAGE Fc chimera [2]; ELISA, BSA subtracted as background, nonlinear regression fit)?
**A.** The value was 2.49.

**Q.** And the “Log binding (RAGE)” value (RAGE Fc chimera [2]; RAGE 0 nM (background))?
**A.** The value was -0.623.

**Q.** And the “Log binding (RAGE)” value (RAGE Fc chimera [2]; RAGE 0.83 nM)?
**A.** Its value is “• 0.112±0.041 • p<0.0001”.

**Q.** What about the “Log binding (RAGE)” value (RAGE Fc chimera [2]; RAGE 1.67 nM) of the same molecule?
**A.** The value was “• 0.228±0.043 • p<0.0001”.

**Q.** What about the “Log binding (RAGE)” value (RAGE Fc chimera [2]; RAGE 3.33 nM) of the same molecule?
**A.** Its value is “• 0.325±0.064 • p<0.0001”.

**Q.** And the “Log binding (Aβ1–42)” value (Aβ1–42 [3]; Aβ1–42 0 nM (background))?
**A.** The value was “• -0.907±0.139 • p = 0.005”.

**Q.** What about the “Log binding (Aβ1–42)” value (Aβ1–42 [3]; Aβ1–42 3.47 nM) of the same molecule?
**A.** The value was “• -0.556±0.047 • p<0.0001”.

**Q.** What about the “Log binding (Aβ1–42)” value (Aβ1–42 [3]; Aβ1–42 13.89 nM) of the same molecule?
**A.** Its value is “• -0.138±0.047 • p<0.0001”.

**Q.** What about the “Log binding (Aβ1–42)” value (Aβ1–42 [3]; Aβ1–42 27.78 nM) of the same molecule?
**A.** Its value is “• 0.137±0.043 • p<0.0001”.

**Q.** And the “Log binding (Aβ1–42)” value (Aβ1–42 [3]; Aβ1–42 55.56 nM)?
**A.** Its value is “• 0.304±0.039 • p<0.0001”.

**Q.** What about the “maximum absorbance value for Aβ1–42 binding” value (Aβ1–42 [3]; ELISA with protease inhibitors, BSA subtracted, nonlinear regression fit) of the same molecule?
**A.** The value was 2.86.

**Q.** And the “binding of Aβ1–42 (far-Western dot blot)” value (Aβ1–42 [4])?
**A.** The value was “strong binding”.

**Q.** And the “binding of RAGE (far-Western dot blot)” value (RAGE Fc chimera [5])?
**A.** The value was “strong binding”.
